Assay: Clinical safety of domvanalimab, 99 participants (AB154CSP0001 and ARC-7): TEAEs, related AEs, SAEs
Format: in vivo, human
Settings: for Any TEAEs / TEAE Diarrhoea / TEAE Fatigue / TEAE Nausea / TEAE Pruritus: Table 15

B1: domvanalimab: anti-TIGIT antibody with engineered IgG1 Fc, reduced FcγR binding; heavy chain SEQ ID NO: 12, light chain SEQ ID NO: 13 (antibody)
heavy: EVQLVESGGGLVQPGGSLRLSCAASGFTFSNFGMHWVRQAPGKGLEWVAFISSGSSSIYYADTVKGRFTISRDNAKNSLYLQMNSLRAEDTAVYYCARMRLDYYAMDYWGQGTMVTVSSASTKGPSVFPLAPSSKSTSGGTAALGCLVKDYFPEPVTVSWNSGALTSGVHTFPAVLQSSGLYSLSSVVTVPSSSLGTQTYICNVNHKPSNTKVDKKVEPKSCDKTHTCPPCPAPEAAGGPSVFLFPPKPKDTLMISRTPEVTCWVDVSHEDPEVKFNWYVDGVEVHNAKTKPREEQYNSTYRWSVLTVLHQDWLNGKEYKCKVSNKALPAPIEKTISKAKGQPREPQVYTLPPSRDELTKNQVSLTCLVKGFYPSDIAVEWESNGQPENNYKTTPPVLDSDGSFFLYSKLTVDKSRWQQGNVFSCSVMHEALHNHYTQKSLSLSPGK
light: DIQMTQSPSSLSASVGDRVTITCRASKSISKYLAWYQQKPGKAPKLLIYSGSTLQSGVPSRFSGSGSGTDFTLTISSLQPEDFATYYCQQHNEYPWTFGGGTKVEIKRTVAAPSVFIFPPSDEQLKSGTASWCLLNNFYPREAKVQWKVDNALQSGNSQESVTEQDSKDSTYSLSSTLTLSKADYEKHKVYACEVTHQGLSSPVTKSFNRGEC
In the case of B1, the “Domvanalimab-related AE: Rhinorrhoea” value (ARC-7 (N = 37)) is reported as 1 ( 2.7%), the “Domvanalimab-related AE: Vomiting” value (ARC-7 (N = 37)) is reported as 1 ( 2.7%) and the “Any TEAEs” value (ARC-7 (n = 37)) is reported as 31 (83.8%). The “TEAE Diarrhoea” value (ARC-7 (n = 37)) was 5 (13.5%), the “TEAE Fatigue” value (ARC-7 (n = 37)) was 3 (8.1%) and the “TEAE Nausea” value (ARC-7 (n = 37)) was 4 (10.8%). For the same molecule, the “TEAE Pruritus” value (ARC-7 (n = 37)) was 4 (10.8%), the “Any TEAEs” value (Total (n = 99)) was 84 (84.8%) and the “TEAE Diarrhoea” value (Total (n = 99)) was 10 (10.1%). For the same molecule, the “TEAE Fatigue” value (Total (n = 99)) was 12 (12.1%), the “TEAE Nausea” value (Total (n = 99)) was 13 (13.1%) and the “TEAE Pruritus” value (Total (n = 99)) was 10 (10.1%). The “Any TEAEs” value (n = 62) was 53 (85.5%), the “TEAE Diarrhoea” value (n = 62) was 5 (8.1%) and the “TEAE Fatigue” value (n = 62) was 9 (14.5%). The “TEAE Nausea” value (n = 62) was 9 (14.5%), the “TEAE Pruritus” value (n = 62) was 6 (9.7%) and the “Domvanalimab-related AE: Abdominal distension” value (Total (N = 99)) was 1 ( 1.0%). For the same molecule, the “Domvanalimab-related AE: Abdominal pain” value (Total (N = 99)) was 1 ( 1.0%), the “Domvanalimab-related AE: Adrenal insufficiency” value (Total (N = 99)) was 1 ( 1.0%) and the “Domvanalimab-related AE: Anaemia” value (Total (N = 99)) was 1 ( 1.0%). The “Domvanalimab-related AE: Any AEs” value (Total (N = 99)) was 50 (50.5%), the “Domvanalimab-related AE: Arthralgia” value (Total (N = 99)) was 4 (4.0%) and the “Domvanalimab-related AE: Arthritis” value (Total (N = 99)) was 1 ( 1.0%). For the same molecule, the “Domvanalimab-related AE: Aspartate aminotransferase increased” value (Total (N = 99)) was 1 ( 1.0%), the “Domvanalimab-related AE: Asthenia” value (Total (N = 99)) was 1 ( 1.0%) and the “Domvanalimab-related AE: Back pain” value (Total (N = 99)) was 2 ( 2.0%). The “Domvanalimab-related AE: Constipation” value (Total (N = 99)) was 2 ( 2.0%), the “Domvanalimab-related AE: Cough” value (Total (N = 99)) was 1 ( 1.0%) and the “Domvanalimab-related AE: Decreased appetite” value (Total (N = 99)) was 3 (3.0%). For the same molecule, the “Domvanalimab-related AE: Delirium” value (Total (N = 99)) was 1 ( 1.0%), the “Domvanalimab-related AE: Diarrhoea” value (Total (N = 99)) was 5 (5.1%) and the “Domvanalimab-related AE: Dry eye” value (Total (N = 99)) was 1 ( 1.0%). For the same molecule, the “Domvanalimab-related AE: Dry mouth” value (Total (N = 99)) was 1 ( 1.0%), the “Domvanalimab-related AE: Dyspnoea exertional” value (Total (N = 99)) was 1 ( 1.0%) and the “Domvanalimab-related AE: Fatigue” value (Total (N = 99)) was 6 (6.1%). For the same molecule, the “Domvanalimab-related AE: Flank pain” value (Total (N = 99)) was 1 ( 1.0%), the “Domvanalimab-related AE: Generalised oedema” value (Total (N = 99)) was 1 ( 1.0%) and the “Domvanalimab-related AE: Headache” value (Total (N = 99)) was 4 (4.0%). The “Domvanalimab-related AE: Hot flush” value (Total (N = 99)) was 1 ( 1.0%), the “Domvanalimab-related AE: Hyperglycaemia” value (Total (N = 99)) was 1 ( 1.0%) and the “Domvanalimab-related AE: Hyperkalaemia” value (Total (N = 99)) was 1 ( 1.0%). For the same molecule, the “Domvanalimab-related AE: Hyperthyroidism” value (Total (N = 99)) was 3 (3.0%), the “Domvanalimab-related AE: Hypokalaemia” value (Total (N = 99)) was 1 ( 1.0%) and the “Domvanalimab-related AE: Hypothyroidism” value (Total (N = 99)) was 4 (4.0%). For the same molecule, the “Domvanalimab-related AE: Immune-mediated hepatitis” value (Total (N = 99)) was 2 ( 2.0%), the “Domvanalimab-related AE: Influenza like illness” value (Total (N = 99)) was 1 ( 1.0%) and the “Domvanalimab-related AE: Infusion related reaction” value (Total (N = 99)) was 2 ( 2.0%). The “Domvanalimab-related AE: Infusion site pain” value (Total (N = 99)) was 1 ( 1.0%), the “Domvanalimab-related AE: Liver function test increased” value (Total (N = 99)) was 1 ( 1.0%) and the “Domvanalimab-related AE: Lymphopenia” value (Total (N = 99)) was 1 ( 1.0%). The “Domvanalimab-related AE: Malaise” value (Total (N = 99)) was 2 ( 2.0%), the “Domvanalimab-related AE: Muscle spasms” value (Total (N = 99)) was 1 ( 1.0%) and the “Domvanalimab-related AE: Musculoskeletal chest pain” value (Total (N = 99)) was 1 ( 1.0%). For the same molecule, the “Domvanalimab-related AE: Myalgia” value (Total (N = 99)) was 1 ( 1.0%), the “Domvanalimab-related AE: Nail disorder” value (Total (N = 99)) was 1 ( 1.0%) and the “Domvanalimab-related AE: Nasal mucosal disorder” value (Total (N = 99)) was 1 ( 1.0%). For the same molecule, the “Domvanalimab-related AE: Nausea” value (Total (N = 99)) was 6 (6.1%), the “Domvanalimab-related AE: Oral pain” value (Total (N = 99)) was 1 ( 1.0%) and the “Domvanalimab-related AE: Pain” value (Total (N = 99)) was 2 ( 2.0%). The “Domvanalimab-related AE: Pancreatitis” value (Total (N = 99)) was 1 ( 1.0%), the “Domvanalimab-related AE: Paraesthesia” value (Total (N = 99)) was 1 ( 1.0%) and the “Domvanalimab-related AE: Peripheral sensory neuropathy” value (Total (N = 99)) was 1 ( 1.0%). For the same molecule, the “Domvanalimab-related AE: Pneumonitis” value (Total (N = 99)) was 2 ( 2.0%), the “Domvanalimab-related AE: Pruritus” value (Total (N = 99)) was 9 (9.1%) and the “Domvanalimab-related AE: Pruritus generalised” value (Total (N = 99)) was 1 ( 1.0%). The “Domvanalimab-related AE: Pulmonary pain” value (Total (N = 99)) was 1 ( 1.0%), the “Domvanalimab-related AE: Pyrexia” value (Total (N = 99)) was 5 (5.1%) and the “Domvanalimab-related AE: Rash” value (Total (N = 99)) was 4 (4.0%). The “Domvanalimab-related AE: Rash maculo-papular” value (Total (N = 99)) was 6 (6.1%), the “Domvanalimab-related AE: Rash pruritic” value (Total (N = 99)) was 1 ( 1.0%) and the “Domvanalimab-related AE: Rhinorrhoea” value (Total (N = 99)) was 1 ( 1.0%). The “Domvanalimab-related AE: Transaminases increased” value (Total (N = 99)) was 1 ( 1.0%), the “Domvanalimab-related AE: Tumour flare” value (Total (N = 99)) was 3 (3.0%) and the “Domvanalimab-related AE: Tumour pain” value (Total (N = 99)) was 1 ( 1.0%). The “Domvanalimab-related AE: Vomiting” value (Total (N = 99)) was 1 ( 1.0%) and the “tolerability in cancer patients” value (clinical data to date) was “well tolerated”.
